Patent US20050181059A1, “Nanoparticulate therapeutic biologically active agents” (Spherics, Inc., priority 2003, published 2005)

Assays:
[1] = BCA analysis of protein concentration of redissolved hIL-12; assay type: physicochemical; details: BCA assay, resolubilized in 10 mM PBS
Description: Recombinant Human Interleukin-12 (hIL-112) was obtained from Genetics Institute and tBA from EM Science. hIL-12 (500 microliters at 2.79 mg/ml) was injected into tBA (5 ml). A fine precipitate formed immediately. The dispersion was rapidly frozen in liquid nitrogen (15 minutes) and the solvent removed by lyophilization for 48 hours. The resulting powder was visualized by SEM. The stability following micronization was assayed by SDS-PAGE (Invitrogen) and BCA (Pierce) assay of hIL-12 resolubilized in 10 mM PBS according to manufacturer's instructions.
SDS-PAGE (denaturing, non-reducing) analysis was used to compare tBA-treated hIL-12 particles with the control stock, with and without lyophilization. […] This was confirmed by […] acid (BCA) analysis of protein concentration of hIL-12 redissolved after lyophilization alone, or after micronization followed by lyophilization. The lyophilized-only protein was 99% soluble, while the micronized protein was 71% soluble. Thus a disagreggating agent should be included to prevent aggregation when micronizing hIL-12 using tBA.

[2] = SDS-PAGE stability following micronization; assay type: physicochemical; details: denaturing, non-reducing; resolubilized in 10 mM PBS
[3] = in vivo
Description: In a separate study, the bioavailability for non-encapsulated insulin was tested.

Substance | soluble protein after redissolving [1] [%] | aggregation by SDS-PAGE [2] | bioavailability [3]
lyophilized-only hIL-12: hIL-12 control stock redissolved after lyophilization alone | 99 | did not produce irreversible aggregation | –
micronized hIL-12: Recombinant Human Interleukin-12 injected into tBA, frozen and lyophilized | 71 | irreversibly denatured and aggregated into dimers, trimers, and aggregates too large to enter the gel | –
Non-encapsulated insulin: non-encapsulated insulin tested for bioavailability in a separate study | – | – | less than 1%
